Literature values as cited in paper PMC6175838.

How the values were obtained:
[1] = target: claudin-3 (Homo sapiens) (UniProt O15551); test: given as Ka
[2] = target: claudin-4 (Homo sapiens) (UniProt O14493); test: given as Ka
Sequence of UniProt O14493 (O14493 whole entry): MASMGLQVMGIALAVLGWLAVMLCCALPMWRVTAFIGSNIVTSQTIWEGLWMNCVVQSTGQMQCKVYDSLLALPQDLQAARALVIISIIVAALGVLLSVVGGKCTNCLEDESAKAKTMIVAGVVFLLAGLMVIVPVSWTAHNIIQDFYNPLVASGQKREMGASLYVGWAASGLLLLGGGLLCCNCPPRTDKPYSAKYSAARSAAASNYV

Sequence of UniProt O15551 (O15551 whole entry): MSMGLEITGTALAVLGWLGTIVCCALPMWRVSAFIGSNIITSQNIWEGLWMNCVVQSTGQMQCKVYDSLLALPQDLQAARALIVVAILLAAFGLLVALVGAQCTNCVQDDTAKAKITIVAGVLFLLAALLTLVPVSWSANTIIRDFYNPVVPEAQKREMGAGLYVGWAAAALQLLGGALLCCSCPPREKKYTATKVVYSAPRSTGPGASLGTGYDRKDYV

C-CPE C-terminal domain (from UniProt P01558)
Kd [1]: 0.01 µM
Kd [2]: 0.01 µM
